From paper PMC8206812 (Frontiers in Bioengineering and Biotechnology, 2021)

Columns and labels:
yeast hexokinase (HK) = biological target: T1, yeast hexokinase (HK) (Saccharomyces cerevisiae, UniProt P04807); experiment: coupled G6PDH assay, NADH formation; type: biochemical; conditions: inhibition by product; 0.15-20 mM ADP, 30 °C, pH 7.5
T1 construct: gene HXK2; commercial preparation containing predominantly the PII isoform (HXK2); may contain some PI
T1 sequence (P04807 2-486): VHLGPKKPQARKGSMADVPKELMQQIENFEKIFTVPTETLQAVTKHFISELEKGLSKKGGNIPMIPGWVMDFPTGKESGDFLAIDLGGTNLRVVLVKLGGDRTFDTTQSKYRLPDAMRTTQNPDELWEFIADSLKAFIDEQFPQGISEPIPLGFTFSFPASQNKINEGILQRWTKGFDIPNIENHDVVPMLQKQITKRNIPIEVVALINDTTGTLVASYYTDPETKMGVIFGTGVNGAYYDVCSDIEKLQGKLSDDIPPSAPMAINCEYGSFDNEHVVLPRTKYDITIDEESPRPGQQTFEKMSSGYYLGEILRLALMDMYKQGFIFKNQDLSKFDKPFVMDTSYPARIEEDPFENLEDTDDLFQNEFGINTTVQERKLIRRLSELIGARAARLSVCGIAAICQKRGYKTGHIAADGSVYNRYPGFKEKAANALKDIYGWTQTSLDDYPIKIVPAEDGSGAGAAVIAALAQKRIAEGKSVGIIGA

[1] = substrate: Nc1ncnc2c1ncn2[C@@H]1O[C@H](COP(=O)(O)OP(=O)(O)O)[C@@H](O)[C@H]1O; experiment: luciferase ATP determination assay; type: biochemical, Pseudomonas aeruginosa; conditions: 0-20 mM ADP, 10 mM sodium polyphosphate (Graham's salt), 10 mM MgCl2, sodium phosphate pH 7.5, 30 °C
[2] = substrate: Nc1ncnc2c1ncn2[C@@H]1O[C@H](COP(=O)(O)OP(=O)(O)OP(=O)(O)O)[C@@H](O)[C@H]1O; experiment: coupled G6PDH assay, NADH formation; type: biochemical, Saccharomyces cerevisiae; conditions: 200 mM glucose, 10 mM MgCl2, 50 mM sodium phosphate pH 7.5, 30 °C
Excerpt: coupled G6PDH assay, NADH formation on yeast hexokinase (HK)

With `Nc1ncnc2c1ncn2[C@@H]1O[C@H](COP(=O)(O)OP(=O)(O)O)[C@@H](O)[C@H]1O` [ADP] the relative activity (yeast hexokinase (HK)) was “ADP lowered the reaction even at small concentrations”.

B1: PPK2 (Pseudomonas aeruginosa PAO1) (protein)
chain: MDSYGDTSGRIGRDWLDRHDEELEQELLDDELNLDELFGPEQEDAPGELSRRRYFRELFRLQRELVKLQNWVVHTGHKVVILFEGRDAAGKGGVIKRITQRLNPRVCRVAALPAPNDREQTQWYFQRYVSHLPAGGEIVLFDRSWYNRAGVERVMGFCNDEQYEEFFRSVPEFEKMLARSGIQLLKYWFSISDAEQHLRFLSRIHDPLKQWKLSPMDLESRRRWEAYTKAKETMLERTHIPEAPWWVVQADDKKRARLNCIHHLLQQMPYREVPQPPVHLPERLRHADYVRHPTPGEIIVPEVY
notes: about 39 kDa; E. coli BL21 (DE3)
With B1 the Km [1] was 23 ± 5.9 µM.

B2: yeast hexokinase (HK) (Saccharomyces cerevisiae S288C) (protein)
chain: T1 sequence (P04807 2-486)
notes: commercial preparation containing predominantly the PII isoform (HXK2); may contain some PI
B2 showed a Km [2] of 1107 ± 74 µM and a Vmax [2] of 33 µM/min.
